Measurements as given in patent publication US20230139053A1.

How the values were obtained:
[1] = molecular target: anti-A2M antibody (MAB) labeled with a donor fluorophore; assay: competitive TR-FRET, competitor acceptor-labeled isolated A2M, whole blood; A2M 1000 ug/mL, singleplex cals, 5 min (FIG. 2I)
[2] = molecular target: anti-A2M antibody (MAB) labeled with a donor fluorophore; assay: competitive TR-FRET, competitor acceptor-labeled isolated A2M, whole blood; A2M 4000 ug/mL, singleplex cals, 30 min (FIG. 2I)
[3] = molecular target: anti-A2M antibody (MAB) labeled with a donor fluorophore; assay: competitive TR-FRET, competitor acceptor-labeled isolated A2M, whole blood; A2M 500 ug/mL, multiplex cals, 30 min (FIG. 2I)
[4] = molecular target: anti-A2M antibody (MAB) labeled with a donor fluorophore; assay: competitive TR-FRET, competitor acceptor-labeled isolated A2M, whole blood; A2M 2000 ug/mL, singleplex cals, 30 min (FIG. 2I)
[5] = molecular target: anti-A2M antibody (MAB) labeled with a donor fluorophore; assay: competitive TR-FRET, competitor acceptor-labeled isolated A2M, whole blood; A2M 500 ug/mL, multiplex cals, 5 min (FIG. 2I)
[6] = molecular target: anti-A2M antibody (MAB) labeled with a donor fluorophore; assay: competitive TR-FRET, competitor acceptor-labeled isolated A2M, whole blood; A2M 2000 ug/mL, singleplex cals, 5 min (FIG. 2I)
[7] = molecular target: anti-A2M antibody (MAB) labeled with a donor fluorophore; assay: competitive TR-FRET, competitor acceptor-labeled isolated A2M, whole blood; A2M 0 ug/mL, multiplex cals, 30 min (FIG. 2I)
[8] = molecular target: anti-A2M antibody (MAB) labeled with a donor fluorophore; assay: competitive TR-FRET, competitor acceptor-labeled isolated A2M, whole blood; A2M 1000 ug/mL, multiplex cals, 30 min (FIG. 2I)
[9] = molecular target: anti-A2M antibody (MAB) labeled with a donor fluorophore; assay: competitive TR-FRET, competitor acceptor-labeled isolated A2M, whole blood; A2M 500 ug/mL, singleplex cals, 30 min (FIG. 2I)
[10] = molecular target: anti-A2M antibody (MAB) labeled with a donor fluorophore; assay: competitive TR-FRET, competitor acceptor-labeled isolated A2M, whole blood; A2M 2000 ug/mL, multiplex cals, 30 min (FIG. 2I)
[11] = molecular target: anti-A2M antibody (MAB) labeled with a donor fluorophore; assay: competitive TR-FRET, competitor acceptor-labeled isolated A2M, whole blood; A2M 200 ug/mL, singleplex cals, 5 min (FIG. 2I)
[12] = molecular target: anti-A2M antibody (MAB) labeled with a donor fluorophore; assay: competitive TR-FRET, competitor acceptor-labeled isolated A2M, whole blood; A2M 1000 ug/mL, singleplex cals, 30 min (FIG. 2I)
[13] = molecular target: anti-A2M antibody (MAB) labeled with a donor fluorophore; assay: competitive TR-FRET, competitor acceptor-labeled isolated A2M, whole blood; A2M 500 ug/mL, singleplex cals, 5 min (FIG. 2I)
[14] = molecular target: anti-A2M antibody (MAB) labeled with a donor fluorophore; assay: competitive TR-FRET, competitor acceptor-labeled isolated A2M, whole blood; A2M 200 ug/mL, multiplex cals, 30 min (FIG. 2I)
[15] = molecular target: anti-A2M antibody (MAB) labeled with a donor fluorophore; assay: competitive TR-FRET, competitor acceptor-labeled isolated A2M, whole blood; A2M 4000 ug/mL, singleplex cals, 5 min (FIG. 2I)
[16] = molecular target: anti-A2M antibody (MAB) labeled with a donor fluorophore; assay: competitive TR-FRET, competitor acceptor-labeled isolated A2M, whole blood; A2M 4000 ug/mL, multiplex cals, 5 min (FIG. 2I)
[17] = molecular target: anti-A2M antibody (MAB) labeled with a donor fluorophore; assay: competitive TR-FRET, competitor acceptor-labeled isolated A2M, whole blood; A2M 0 ug/mL, singleplex cals, 30 min (FIG. 2I)
[18] = molecular target: anti-A2M antibody (MAB) labeled with a donor fluorophore; assay: competitive TR-FRET, competitor acceptor-labeled isolated A2M; unlabeled A2M 500 ug/mL, mean of 4 replicates (FIG. 2G)
[19] = molecular target: anti-A2M antibody (MAB) labeled with a donor fluorophore; assay: competitive TR-FRET, competitor acceptor-labeled isolated A2M; unlabeled A2M 0 ug/mL, mean of 4 replicates (FIG. 2G)
[20] = molecular target: anti-A2M antibody (MAB) labeled with a donor fluorophore; assay: competitive TR-FRET, competitor acceptor-labeled isolated A2M, whole blood; A2M 1000 ug/mL, multiplex cals, 5 min (FIG. 2I)
[21] = molecular target: anti-A2M antibody (MAB) labeled with a donor fluorophore; assay: competitive TR-FRET, competitor acceptor-labeled isolated A2M; unlabeled A2M 1000 ug/mL, mean of 4 replicates (FIG. 2G)
[22] = molecular target: anti-A2M antibody (MAB) labeled with a donor fluorophore; assay: competitive TR-FRET, competitor acceptor-labeled isolated A2M; unlabeled A2M 2000 ug/mL, mean of 4 replicates (FIG. 2G)
[23] = molecular target: anti-A2M antibody (MAB) labeled with a donor fluorophore; assay: competitive TR-FRET, competitor acceptor-labeled isolated A2M; unlabeled A2M 4000 ug/mL, mean of 4 replicates (FIG. 2G)
[24] = molecular target: anti-A2M antibody (MAB) labeled with a donor fluorophore; assay: competitive TR-FRET, competitor acceptor-labeled isolated A2M, whole blood; A2M 0 ug/mL, multiplex cals, 5 min (FIG. 2I)
[25] = molecular target: anti-A2M antibody (MAB) labeled with a donor fluorophore; assay: competitive TR-FRET, competitor acceptor-labeled isolated A2M; unlabeled A2M 200 ug/mL, mean of 4 replicates (FIG. 2G)
[26] = molecular target: anti-A2M antibody (MAB) labeled with a donor fluorophore; assay: competitive TR-FRET, competitor acceptor-labeled isolated A2M, whole blood; A2M 200 ug/mL, singleplex cals, 30 min (FIG. 2I)
[27] = molecular target: anti-A2M antibody (MAB) labeled with a donor fluorophore; assay: competitive TR-FRET, competitor acceptor-labeled isolated A2M, whole blood; A2M 4000 ug/mL, multiplex cals, 30 min (FIG. 2I)
[28] = molecular target: anti-A2M antibody (MAB) labeled with a donor fluorophore; assay: competitive TR-FRET, competitor acceptor-labeled isolated A2M, whole blood; A2M 2000 ug/mL, multiplex cals, 5 min (FIG. 2I)
[29] = molecular target: anti-A2M antibody (MAB) labeled with a donor fluorophore; assay: competitive TR-FRET, competitor acceptor-labeled isolated A2M, whole blood; A2M 0 ug/mL, singleplex cals, 5 min (FIG. 2I)
[30] = molecular target: anti-A2M antibody (MAB) labeled with a donor fluorophore; assay: competitive TR-FRET, competitor acceptor-labeled isolated A2M, whole blood; A2M 200 ug/mL, multiplex cals, 5 min (FIG. 2I)

B1: A2M (alpha-2-macroglobulin), unlabeled calibrator / analyte (protein)
chain: SVSGKPQYMVLVPSLLHTETTEKGCVLLSYLNETVTVSASLESVRGNRSLFTDLEAENDVLHCVAFAVPKSSSNEEVMFLTVQVKGPTQEFKKRTTVMVKNEDSLVFVQTDKSIYKPGQTVKFRVVSMDENFHPLNELIPLVYIQDPKGNRIAQWQSFQLEGGLKQFSFPLSSEPFQGSYKVVVQKKSGGRTEHPFTVEEFVLPKFEVQVTVPKIITILEEEMNVSVCGLYTYGKPVPGHVTVSICRKYSDASDCHGEDSQAFCEKFSGQLNSHGCFYQQVKTKVFQLKRKEYEMKLHTEAQIQEEGTVVELTGRQSSEITRTITKLSFVKVDSHFRQGIPFFGQVRLVDGKGVPIPNKVIFIRGNEANYYSNATTDEHGLVQFSINTTNVMGTSLTVRVNYKDRSPCYGYQWVSEEHEEAHHTAYLVFSPSKSFVHLEPMSHELPCGHTQTVQAHYILNGGTLLGLKKLSFYYLIMAKGGIVRTGTHGLLVKQEDMKGHFSISIPVKSDIAPVARLLIYAVLPTGDVIGDSAKYDVENCLANKVDLSFSPSQSLPASHAHLRVTAAPQSVCALRAVDQSVLLMKPDAELSASSVYNLLPEKDLTGFPGPLNDQDNEDCINRHNVYINGITYTPVSSTNEKDMYSFLEDMGLKAFTNSKIRKPKMCPQLQQYEMHGPEGLRVGFYESDVMGRGHARLVHVEEPHTETVRKYFPETWIWDLVVVNSAGVAEVGVTVPDTITEWKAGAFCLSEDAGLGISSTASLRAFQPFFVELTMPYSVIRGEAFTLKATVLNYLPKCIRVSVQLEASPAFLAVPVEKEQAPHCICANGRQTVSWAVTPKSLGNVNFTVSAEALESQELCGTEVPSVPEHGRKDTVIKPLLVEPEGLEKETTFNSLLCPSGGEVSEELSLKLPPNVVEESARASVSVLGDILGSAMQNTQNLLQMPYGCGEQNMVLFAPNIYVLDYLNETQQLTPEIKSKAIGYLNTGYQRQLNYKHYDGSYSTFGERYGRNQGNTWLTAFVLKTFAQARAYIFIDEAHITQALIWLSQRQKDNGCFRSSGSLLNNAIKGGVEDEVTLSAYITIALLEIPLTVTHPVVRNALFCLESAWKTAQEGDHGSHVYTKALLAYAFALAGNQDKRKEVLKSLNEEAVKKDNSVHWERPQKPKAPVGHFYEPQAPSAEVEMTSYVLLAYLTAQPAPTSEDLTSATNIVKWITKQQNAQGGFSSTQDTVVALHALSKYGAATFTRTGKAAQVTIQSSGTFSSKFQVDNNNRLLLQQVSLPELPGEYSMKVTGEGCVYLQTSLKYNILPEKEEFPFALGVQTLPQTCDEPKAHTSFQISLSVSYTGSRSASNMAIVDVKMVSGFIPLKPTVKMLERSNHVSRTEVSSNHVLIYLDKVSNQTLSLFFTVLQDVPVRDLKPAIVKVYDYYETDEFAIAEYNAPCSKDLGNA
F/B [1]: 0.58 | F/B [2]: 0.33 | F/B [3]: 0.74 | F/B [4]: 0.43 | F/B [5]: 0.71 | F/B [6]: 0.43 | F/B [7]: 1 | F/B [8]: 0.56 | F/B [9]: 0.71 | F/B [10]: 0.45 | F/B [11]: 0.88 | F/B [12]: 0.59 | F/B [13]: 0.72 | F/B [14]: 0.87 | F/B [15]: 0.33 | F/B [16]: 0.34 | F/B [17]: 1 | F/B Mean [18]: 0.795 | F/B Mean [19]: 1 | F/B [20]: 0.58 | F/B Mean [21]: 0.666 | F/B Mean [22]: 0.532 | F/B Mean [23]: 0.393 | F/B [24]: 1 | F/B Mean [25]: 0.905 | F/B [26]: 0.88 | F/B [27]: 0.33 | F/B [28]: 0.45 | F/B [29]: 1 | F/B [30]: 0.83
